For assay [1], the target named is MtrE, His-tagged (wild type) (N. gonorrhoeae FA19) (UniProt Q51006). As to the kind of experiment: native MS.
Assay [2] deals with MtrE E434K, His-tagged (N. gonorrhoeae FA19) (UniProt Q51006). Put plainly: ITC.
Assay [3] has as its target MtrE, His-tagged (wild type) (N. gonorrhoeae FA19) (UniProt Q51006). As to the kind of experiment: ITC.
For the next assay, the target named is T1, MtrD, His-tagged (N. gonorrhoeae FA19, UniProt Q51073 1-1067).
T1 sequence (looked up): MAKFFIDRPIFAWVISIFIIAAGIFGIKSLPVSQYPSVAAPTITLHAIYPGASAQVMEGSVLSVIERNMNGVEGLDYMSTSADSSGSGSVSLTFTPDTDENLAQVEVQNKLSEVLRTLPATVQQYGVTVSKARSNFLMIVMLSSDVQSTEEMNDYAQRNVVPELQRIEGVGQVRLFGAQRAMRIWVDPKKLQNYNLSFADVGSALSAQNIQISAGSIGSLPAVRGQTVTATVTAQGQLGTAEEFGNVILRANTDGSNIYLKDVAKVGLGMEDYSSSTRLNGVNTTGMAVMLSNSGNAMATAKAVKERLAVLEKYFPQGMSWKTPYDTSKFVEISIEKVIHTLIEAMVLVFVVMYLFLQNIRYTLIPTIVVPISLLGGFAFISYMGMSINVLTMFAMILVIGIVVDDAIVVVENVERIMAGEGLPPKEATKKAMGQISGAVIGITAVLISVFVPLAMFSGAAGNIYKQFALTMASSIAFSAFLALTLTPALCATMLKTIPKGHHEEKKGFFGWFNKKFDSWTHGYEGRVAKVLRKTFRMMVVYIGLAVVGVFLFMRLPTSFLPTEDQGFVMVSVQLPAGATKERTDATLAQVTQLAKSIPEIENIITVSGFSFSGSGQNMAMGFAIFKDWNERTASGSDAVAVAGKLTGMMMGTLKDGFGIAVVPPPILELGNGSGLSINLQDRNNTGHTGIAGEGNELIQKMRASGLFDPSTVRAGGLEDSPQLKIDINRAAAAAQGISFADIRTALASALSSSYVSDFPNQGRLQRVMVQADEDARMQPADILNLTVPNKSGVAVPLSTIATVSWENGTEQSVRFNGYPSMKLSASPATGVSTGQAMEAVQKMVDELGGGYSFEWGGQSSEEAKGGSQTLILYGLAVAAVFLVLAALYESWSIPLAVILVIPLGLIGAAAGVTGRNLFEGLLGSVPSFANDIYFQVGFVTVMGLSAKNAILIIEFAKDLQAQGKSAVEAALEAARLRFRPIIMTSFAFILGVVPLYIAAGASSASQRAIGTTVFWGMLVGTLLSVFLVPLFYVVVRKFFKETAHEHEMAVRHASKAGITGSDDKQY
Put plainly: ITC.

The molecule “MtrE, His-tagged (wild type) (from UniProt Q51006 1-467) (natural protein)” had a stoichiometry N in assay [1] of 3.

B1: MtrC α-helical coiled-coil hairpin domain (residues 103–183), His-tagged (domain or fragment)
chain: IDSSTYEAGLESARAQLATAQATLAKADADLARYKPLVSADAISKQEYDAAVTAKRSAEASVKAAQAAIKSAGINLNRSRI
For the molecule B1, in assay [2], the Ka is 8.2e+06 M⁻¹, the Kd stood at 130 nM and the dH is -4.12 kcal/mol. Moreover, in assay [3], the Ka1 (site 1 of a two-site fit) is 460000 M⁻¹, the Ka2 (site 2 of a two-site fit) is 3200 M⁻¹, the Kd of the first (high-affinity) site of a two-site fit came to 2200 nM and the dH1 (site 1 of a two-site fit) was -12 kcal/mol. In assay [3], the dH2 (site 2 of a two-site fit) was -62 kcal/mol and the dH of the first site of a two-site fit is -11 kcal/mol.

B2: NT-MtrC, N-terminal-truncated (Δ1–34) MtrC, His-tagged (domain or fragment, N. gonorrhoeae FA19, UniProt P43505 35-412, looked up)
chain: GQPAGREAPAPVVGVVTVHPQTVALTVELPGRLESLRTADVRAQVGGIIQKRLFQEGSYVRAGQPLYQIDSSTYEAGLESARAQLATAQATLAKADADLARYKPLVSADAISKQEYDAAVTAKRSAEASVKAAQAAIKSAGINLNRSRITAPISGFIGQSKVSEGTLLNAGDTTVLATIRQTNPMYVNVTQSASEVMKLRRQIAEGKLLAADGAIAVGIKFDDGTVYPEKGRLLFADPTVDESTGQITLRAAVSNDQNILMPGLYVRVLMDQVAADNAFIVPQQAVTRGAKDTVMIVNAQGGMEPREVTVAQQQGTNWIVTSGLKDGDKVVVEGISIAGMTGAKKVTPKEWAPSENQAAAPQAGVQTASEAKPASEAK
As to B2, in assay [3], the Kd turned out to be 9800 nM and the dH was -6.84 kcal/mol. Further, in the assay with MtrD, His-tagged, the Ka worked out at 1.2e+06 M⁻¹; the affinity, expressed as Kd, was 800 ± 700 nM; the dH worked out at 1.41 ± 0.318 kcal/mol.

These data come from article PMC3037662 (The Journal of Biological Chemistry, 2010).
